Data: paper PMC11249637, “Interaction of the Atypical Tetracyclines Chelocardin and Amidochelocardin with Renal Drug Transporters” (ACS Pharmacology & Translational Science, 2024)
Values joined by “and” are separate entries in the source; they are usually repeats but may differ in a detail not shown here. Equal entries are not always repeated.

Tests used:
[1] = tested on: organic anion transporters; parameters: method as in PMID 27499331; conditions: cited from earlier work
[2] = tested on: p-gp; parameters: method as in PMID 27499331; conditions: cited from earlier work
[3] = substrate: Cc1ccc2c(C)c3c(c(O)c2c1O)C(=O)[C@@]1(O)C(=O)C(C(N)=O)=C(O)[C@@H](N)[C@H]1C3; assay: Three-point uptake (substrate assessment) in mOct1-overexpressing HEK293 cells; type: in vitro ADME, mouse; conditions: other: Michaelis–Menten fit, 1, 10 and 100 μM; 30.0 °C
Description: (§1) This is important to gain a better understanding of the underlying mechanisms of secretion into urine. Therefore, we assessed the amount of compound taken up by the vector and transporter cells at three different concentrations (1, 10, and 100 μM for mOat1 and mOct1; 0.1, 1, and 10 μM for mOat3) and at two different incubation periods (1 and 5 min for mOat1 and mOct1; 5 and 10 min for mOat3).
(§2) The incubation buffer contained CHD and CDCHD in a final concentration of 1, 10, and 100 μM. After 1 and 5 min, the incubation was terminated. In addition, the probe inhibitor decynium22 (50 μM) was added in one concentration to 10 μM CHD and CDCHD, respectively, and after 1 and 5 min, the incubation was stopped. Inhibition of mOct1-mediated ^3H-MPP (10 μM) uptake by 50 μM decynium22 was performed as a control experiment. After 1 min, the incubation was terminated. All experiments were conducted in triplicate.
(§3) First, a calibration curve was prepared by spiking different concentrations of CHD and CDCHD into the cell matrix. Caffeine was used as an internal standard. In addition, quality control samples (QCs) were prepared for CHD and CDCHD in a cell matrix. The following extraction procedures were used: 300 μL of acetonitrile/water (1:1) is added to the cell pellet (sample or calibration/QC sample) for 15 min at 2000 rpm on an Eppendorf MixMate vortex mixer. 10 μL of this extracted sample is used for further analysis. 10 μL of the extracted cell sample is further extracted with 25 μL of a mixture of methanol/acetonitrile (2:1) containing 12.5 ng/mL caffeine as an internal standard (on ice) for 5 min at 2000 rpm on an Eppendorf MixMate vortex mixer. […] Samples were analyzed using an Agilent 1290 Infinity II HPLC system coupled to an AB Sciex QTrap6500plus mass spectrometer. […]
(§4) For statistical testing of differences in uptake ratio or for the inhibitory effect, an ordinary one-way ANOVA test was performed using GraphPad Prism 9.5.1 software. […] Michaelis–Menten kinetics were determined using the Michaelis–Menten algorithm of GraphPad Prism 9.5.1 software. […]

[4] = substrate: CC(=O)C1=C(O)[C@@H](N)[C@H]2Cc3c(c(O)c4c(O)c(C)ccc4c3C)C(=O)[C@@]2(O)C1=O; assay: as above; type: in vitro ADME, mouse; conditions: other: Michaelis–Menten fit, 1, 10 and 100 μM; 30.0 °C
Description: as §1, §2, §3, §4

[5] = substrate: CC(=O)C1=C(O)[C@@H](N)[C@H]2Cc3c(c(O)c4c(O)c(C)ccc4c3C)C(=O)[C@@]2(O)C1=O; assay: Three-point uptake (substrate assessment) in mOat3-overexpressing HEK293 cells; type: in vitro ADME, mouse; conditions: other: Michaelis–Menten fit, 0.1, 1 and 10 μM; 30.0 °C
Description: as §1
The incubation buffer contained CHD and CDCHD in a final concentration of 0.1, 1, and 10 μM. After 5 and 10 min, the incubation was terminated. In addition, the probe inhibitor probenecid (100 μM) was added in one concentration to 10 μM CHD and CDCHD, respectively, and after 5 and 10 min, the incubation was stopped. Inhibition of mOat3-mediated ^3H-ES (1 μM) uptake by 100 μM probenecid was performed as a control experiment. After 1 min, the incubation was terminated. […]
First, a calibration curve was prepared by spiking different concentrations of CHD and CDCHD into the cell matrix. […] Samples were analyzed using an Agilent 1290 Infinity II HPLC system coupled to an AB Sciex QTrap6500plus mass spectrometer. […]
as §4

[6] = substrate: Cc1ccc2c(C)c3c(c(O)c2c1O)C(=O)[C@@]1(O)C(=O)C(C(N)=O)=C(O)[C@@H](N)[C@H]1C3; assay: Three-point uptake (substrate assessment) in mOat1-overexpressing HEK293 cells; type: in vitro ADME, mouse; conditions: other: Michaelis–Menten fit, 1, 10 and 100 μM; 30.0 °C
Description: as §1
as §2, with “probenecid (100” for “decynium22 (50”, “mOat1-mediated ^3H-PAH” for “mOct1-mediated ^3H-MPP”, “100” for “50”, “probenecid” for “decynium22”
(§5) First, a calibration curve was prepared by spiking different concentrations of CHD and CDCHD into the cell matrix. Caffeine was used as an internal standard. In addition, quality control samples (QCs) were prepared for CHD and CDCHD in a cell matrix. The following extraction procedures were used: 300 μL of acetonitrile/water (1:1) is added to the cell pellet (sample or calibration/QC sample) for 15 min at 2000 rpm on an Eppendorf MixMate vortex mixer. 10 μL of this extracted sample is used for further analysis. 10 μL of the extracted cell sample is further extracted with 25 μL of a mixture of methanol/acetonitrile (2:1) containing 12.5 ng/mL caffeine as an internal standard (on ice) for 5 min at 2000 rpm on an Eppendorf MixMate vortex mixer. Then, samples were spun down at 15,870 × g for 10 min. Supernatants were transferred to standard HPLC glass vials. Samples were analyzed using an Agilent 1290 Infinity II HPLC system coupled to an AB Sciex QTrap6500plus mass spectrometer. LC conditions were as follows: column: Agilent Zorbax Eclipse Plus C18, 50 × 2.1 mm, 1.8 μm; temperature: 30°C; injection volume: 5 μL per sample; flow rate: 700 μL/min. Samples were run under the following conditions. Solvents: A: 100% water +0.1% formic acid; solvent B: 100% acetonitrile +0.1% formic acid. The gradient for CDCHD was as follows: 99% A at 0 min, 99% A until 0.1 min, 99–90% A from 0.1 to 1.0 min, 90–50% A from 1.0 to 2.4 min, 50–35% A from 2.4 to 2.7 min, 35–0% A from 2.7 until 4.5 min, 0% A until 5.5 min, 0–99% from 5.5 to 5.7 min, 99% A until 6.0 min. […]
as §4

[7] = substrate: CC(=O)C1=C(O)[C@@H](N)[C@H]2Cc3c(c(O)c4c(O)c(C)ccc4c3C)C(=O)[C@@]2(O)C1=O; assay: as above; type: in vitro ADME, mouse; conditions: other: Michaelis–Menten fit, 1, 10 and 100 μM; 30.0 °C
Description: as §1
as §2, with “probenecid (100” for “decynium22 (50”, “mOat1-mediated ^3H-PAH” for “mOct1-mediated ^3H-MPP”, “100” for “50”, “probenecid” for “decynium22”
as §5, §4

Molecule: CN(C)c1cc(CNCC(C)(C)C)c(O)c2c1C[C@H]1C[C@H]3[C@H](N(C)C)C(O)=C(C(N)=O)C(=O)[C@@]3(O)C(O)=C1C2=O [omadacycline]
- substrate or inhibitor of organic anion transporters (in words) [1]: neither a substrate nor an inhibitor
- Km [2]: ~82 µM

B1: mOct1 (Mus musculus) (protein)
chain: MPTVDDVLEHVGEFGWFQKQAFLLLCLISASLAPIYVGIVFLGFTPDHHCRSPGVAELSQRCGWSPAEELNYTVPGLGSAGEASFLSQCMKYEVDWNQSTLDCVDPLSSLAANRSHLPLSPCEHGWVYDTPGSSIVTEFNLVCGDAWKVDLFQSCVNLGFFLGSLVVGYIADRFGRKLCLLVTTLVTSLSGVLTAVAPDYTSMLLFRLLQGMVSKGSWVSGYTLITEFVGSGYRRTTAILYQVAFTVGLVGLAGVAYAIPDWRWLQLAVSLPTFLFLLYYWFVPESPRWLLSQKRTTQAVRIMEQIAQKNRKVPPADLKMMCLEEDASERRSPSFADLFRTPSLRKHTLILMYLWFSCAVLYQGLIMHVGATGANLYLDFFYSSLVEFPAAFIILVTIDRIGRIYPIAASNLVAGAACLLMIFIPHELHWLNVTLACLGRMGATIVLQMVCLVNAELYPTFIRNLGMMVCSALCDLGGIFTPFMVFRLMEVWQALPLILFGVLGLSAGAVTLLLPETKGVALPETIEEAENLGRRKSKAKENTIYLQVQTGKSPHT
notes: expressed in transfected cells; host or cells: HEK293
- Km [3]: 55.2 µM
- Km [4]: 8.91 µM and 8.9 µM
- Vmax [4]: 49 nM/min

B2: mOat3 (Mus musculus) (protein)
chain: MTFSEILDRVGSMGPFQYLHVTLLALPILGIANHNLLQIFTATTPDHHCRPPPNASLEPWVLPLGPNGKPEKCLRFVHLPNASLPNDTQGATEPCLDGWIYNSTRDTIVTEWDLVCGSNKLKEMAQSVFMAGILVGGPVFGELSDRFGRKPILTWSYLLLAASGSSAAFSPSLTVYMIFRFLCGCSISGISLSTIILNVEWVPTSTRAISSTTIGYCYTIGQFILPGLAYAVPQWRWLQLSVSAAFFIFSLLSWWVPESIRWLVLSGKFSKALKTLQRVATFNGKKEEGEKLTVEELKFNLQKDITSAKVKYGLSDLFRVSILRRVTFCLSLAWFATGFAYYSLAMGVEEFGVNIYILQIIFGGVDIPAKFITILSISYLGRRITQGFLLILAGVAILALIFVSSEMQLLRTALAVFGKGCLSGSFSCLFLYTSELYPTVLRQTGMGISNIWARVGSMIAPLVKITGELQPFIPNVIFGTMTLLGGSAAFFLLETLNRPLPETIEDIQDWYQQTKKTKQEPEAEKASQTIPLKTGGP
notes: as for B1
- Km [5]: 6.1 µM and 6 µM
- Vmax [5]: 26.42 nM/min

B3: mOat1 (Mus musculus) (protein)
chain: MAFNDLLKQVGGVGRFQLIQVTMVVAPLLLMASHNTLQNFTAAIPAHHCRPPANANLSKDGGLEAWLPLDKQGRPESCLRFPFPHNGTEANGTGVTEPCLDGWVYDNSTFPSTIVTEWNLVCSHRAFRQLAQSLFMVGVLLGAMMFGYLADRLGRRKVLILNYLQTAVSGTCAAYAPNYTVYCIFRLLSGMSLASIAINCMTLNMEWMPIHTRAYVGTLIGYVYSLGQFLLAGIAYAVPHWRHLQLAVSVPFFVAFIYSWFFIESARWYSSSGRLDLTLRALQRVARINGKQEEGAKLSIEVLQTSLQKELTLNKGQASAMELLRCPTLRRLFLCLSMLWFATSFAYYGLVMDLQGFGVSMYLIQVIFGAVDLPAKFVCFLVINSMGRRPAQLASLLLAGICILVNGIIPRGHTIIRTSLAVLGKGCLASSFNCIFLYTGELYPTMIRQTGLGMGSTMARVGSIVSPLISMTAEFYPSIPLFIFGAVPVAASAVTALLPETLGQPLPDTVQDLKSRSRGKQKQQQLEQQKQMIPLQVSTQEKNGL
notes: as for B1
- Km [6]: 39.64 µM
- Vmax [6]: 11.48 nM/min
- Km [7]: 65.08 µM
- Vmax [7]: 82.38 nM/min
